# From patent US20190145962A1 (TAO HEALTH LIFE PHARMA, published 2019)
# B1: HNNW (negative control peptide) (peptide)
# peptide: HNNW
# B2: HPNW (negative control peptide) (peptide)
# peptide: HPNW
# B3: Peptide 09 (peptide)
# peptide: HTNW
# notes: also called HTNW
# B4: Peptide 04 (peptide)
# peptide: HDNW
# notes: also called HDNW
# B5: Peptide 15 (peptide)
# peptide: HFWW
# notes: also called HFWW
# B6: Peptide 13 (peptide)
# peptide: HFGW
# notes: also called HFGW
# B7: Peptide 16 (peptide)
# peptide: HFRW
# notes: also called HFRW
# B8: Peptide 14 (peptide)
# peptide: HFIW
# notes: also called HFIW
# B9: Peptide 06 (peptide)
# peptide: HWNW
# notes: also called HWNW
# B10: Peptide 08 (peptide)
# peptide: HYNW
# notes: also called HYNW
# B11: Peptide 02 (peptide)
# peptide: HRNW
# notes: also called HRNW
# B12: Peptide 03 (peptide)
# peptide: HKNW
# notes: also called HKNW
# B13: Peptide 21 (peptide)
# peptide: HFVW
# notes: also called HFVW
# B14: Peptide 23 (peptide)
# peptide: HFHW
# notes: also called HFHW
# B15: Peptide 20 (peptide)
# peptide: HFAW
# notes: also called HFAW
# B16: Peptide 05 (peptide)
# peptide: HHNW
# notes: also called HHNW
# B17: Peptide 22 (peptide)
# peptide: HFKW
# notes: also called HFKW
# B18: Peptide 17 (peptide)
# peptide: HFMW
# notes: also called HFMW
# B19: Peptide 11 (peptide)
# peptide: HVNW
# notes: also called HVNW
# B20: Peptide 18 (peptide)
# peptide: HFDW
# notes: also called HFDW
# B21: Peptide 24 (peptide)
# peptide: HFYW
# notes: also called HFYW
# B22: Peptide 07 (peptide)
# peptide: HQNW
# notes: also called HQNW
# B23: Peptide 10 (peptide)
# peptide: HANW
# notes: also called HANW
# B24: Peptide 12 (peptide)
# peptide: HFLW
# notes: also called HFLW
# B25: Peptide 19 (peptide)
# peptide: HFEW
# notes: also called HFEW
# Target: T1, synthetic amylospheroids (synthetic ASPD) (UniProt P05067 672-713)
# T1 construct: Spherical Abeta assembly of about 10 nm, made in vitro; In SPR it was solid-phased on the chip; In the imaging assay it was pre-incubated with peptide and added to neurons
# T1 sequence (P05067 672-713): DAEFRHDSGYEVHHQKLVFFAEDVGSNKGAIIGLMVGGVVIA
# Assay: SPR, synthetic ASPD solid-phased on the chip, peptide as analyte
# Method: Synthetic ASPD were solid-phased on a chip and each peptide shown in Table 3 below was allowed to flow as an analyte. Then the dissociation constant (KD) was determined by surface plasmon resonance (SPR).
# Two peptides (HNNW (SEQ ID NO: 27) and HPNW (SEQ ID NO: 28)) that could not inhibit the binding of ASPD to neurons in the evaluation performed in section 1 above were used as negative controls.
row,binding result,Binder
1,no binding,B1
2,no binding,B2

# Target: T1, synthetic amylospheroids (synthetic …)
# Assay: ASPD pre-incubated with peptide, imaging of ASPD bound to rat hippocampal neurons
# Method: A liquid mixture of peptide and synthetic ASPD was incubated at 4° C. for 15 minutes to pretreat the ASPD and this liquid mixture was added to primary cultured rat hippocampal neurons cultured in a 96-well plate.
# After incubation at 37° C. for 15 minutes in a CO₂ incubator, the wells were washed with PBS. Then, 2% paraformaldehyde (50 μl/well) was added thereto for immobilization performed for 20 minutes at 37° C. and further 4% paraformaldehyde (50 μl/well) was added thereto for immobilization performed for 20 minutes at 37° C. After washing and blocking, a primary antibody solution containing anti-ASPD antibody (mASD3) and anti-MAP2 antibody (trade name: sc-20172, manufactured by SANTACRUZ) was added, which then was left overnight. After washing, a secondary antibody solution containing Alexa Fluoro (trademark) 568 anti-mouse antibody (trade name: A11031, manufactured by life technologies), Alexa Fluoro (trademark) 488 anti-rabbit antibody (trade name: A11034, manufactured by life technologies), and DAPI (trade name: D523, manufactured by Dojindo) was added and then fluorescence microscopic observation was performed.
# Subsequently, steps 4 to 5 were performed as follows: From the microscopic observation data, a calibration curve as shown in FIG. 2 was drawn, an approximate curve was created within a range where linearity was maintained, and then ED₅₀ was calculated. Using, as an indicator, “titer” that is defined by the ratio of ED₅₀ of the ASPD treated with peptide to ED₅₀ of the ASPD alone, the ASPD-binding inhibitory ability of peptide was evaluated.
row,ASPD-binding inhibitory ability (titer = ED50[ASPD+Peptide]/ED50[ASPD]),Binder
1,1.5,B3
2,1.5,B4
3,1.5,B5
4,1.5,B6
5,1.5,B7
6,1.5,B8
7,1.5,B9
8,1.5,B10
9,1.5,B11
10,1.5,B12
11,1.5,B13
12,1.5,B14
13,1.5,B15
14,1.5,B16
15,1.5,B17
16,1.5,B18
17,1.5,B19
18,1.5,B20
19,1.5,B21
20,1.5,B22
21,1.5,B23
22,1.5,B24
23,1.5,B25
